According to PMC7955166, “Structural Basis of CYRI-B Direct Competition with Scar/WAVE Complex for Rac1” (Structure(London, England:1993), 2021):
Each block holds one binder with its values, some of them ahead of it.

What was measured:
[1] = biological target: the molecule itself; assay: crystal structure; CYRI-BΔN alone, selenomethionine SAD, 2.37Å, two molecules in the asymmetric unit; crystals at 291K, 0.1M carboxylic acid, 8% MPD_P1K_P33, 0.1M MOPS/HEPES-Na pH 8.0
Rac1Q61L = Rac1Q61L (human, UniProt P63000 1-192, Q61L); assay: SPR; Biacore T200; anti-MBP antibody coupled on a CM5 chip; MBP-CYRI-BΔN captured (~800 RU) on flow-cell 2, MBP (400 RU) on flow-cell 1; Rac1Q61L 0.625μM-80μM as analyte; settings: both partners purified

B1: mouse CYRI-B residues 26-324 (CYRI-BΔN) (domain or fragment, UniProt Q921M7 26-324, looked up)
chain: AQPTESEKEIYNQVNVVLKDAEGILEDLQSYRGAGHEIREAIQHPADEKLQEKAWGAVVPLVGKLKKFYEFSQRLEAALRGLLGALTSTPYSPTQHLEREQALAKQFAEILHFTLRFDELKMTNPAIQNDFSYYRRTLSRMRINNVPAEGENEVNNELANRMSLFYAEATPMLKTLSDATTKFVSENKNLPIENTTDCLSTMASVCRVMLETPEYRSRFTNEETVSFCLRVMVGVIILYDHVHPVGAFAKTSKIDMKGCIKVLKDQPPNSVEGLLNALRYTTKHLNDETTSKQIRSMLQ
modifications: selenomethionine labelled
notes: CYRI-B (Fam49B), mouse, residues 26-324 (entire DUF1394 domain; N-terminal residues 1-25 truncated); Two copies in the asymmetric unit of PDB 7AJL; also called Fam49B; source: E. coli B834 (DE3), selenomethionine labelled, purified (HisTrap, TEV, HisTrap flow-through, Superdex S200); not shown: His10, N-terminal, cleaved; MBP, N-terminal, cleaved
binding result [1]: binds

Kd (Rac1Q61L): 25 µM
B2: MBP-CYRI-BΔN (domain or fragment)
chain: B1 chain
notes: The purification of the uncleaved MBP fusion used for SPR is not described; source: E. coli BL21 pLysS; not shown: His10, N-terminal, kept; MBP, N-terminal, kept
